Assay results published in paper PMC8420772.

Experiments:
[1] = molecular target: MtMce4A_(39–140) (Mycobacterium tuberculosis H37Rv); test: SEC-MALS; in crystallization buffer (0.1 M MES, 0.7 M ammonium sulfate pH 6.0) after slow heating from 20 to 50°C (0.8°C per minute); supernatant on Superdex 200 10/300
[2] = molecular target: MtMce4A_(39–140) (Mycobacterium tuberculosis H37Rv); test: crystal structure; native protein, 7.5 mg ml^−1; 100 mM sodium HEPES, 100 mM LiCl2, 20% PEG 400 pH 7.5, 22°C; space group P6_(5), 2.9 Å

## MtMce4A_(39–140) (domain or fragment)
[1]
  stoichiometry N: 2
[2]
  stoichiometry N: 2
